Results from patent US20100055095A1 (Genentech, published 2010).

Experiments:
Assay in all cases: co-immunoprecipitation from transfected Cos 7 cells on HA beads, western blot with anti-HA and anti-p110α
p110α E545K = target: T1, p110α E545K (human, UniProt P42336 1-1068)
T1 construct: Known hot-spot mutant, constitutively active p110α; also called p110alpha E545K
Text: (§1) Proteins were immunoprecipitated using HA beads, separated by SDS-PAGE, transferred to nitrocellulose, and detected using anti-HA and anti-p110α antibodies. […] In the header row of Table 2, the terms “p110alpha E545K” and “p110alpha H1047R” refer to two known mutational “hot spots” in p110α which result in constitutively active p110α.

[1] = target: T2, p110α, wild-type (protein encoded by PIK3CA, catalytic subunit of PI3K) (human, UniProt P42336 1-1068)
T2 construct: also called p110alpha WT
T2 sequence (P42336 whole entry): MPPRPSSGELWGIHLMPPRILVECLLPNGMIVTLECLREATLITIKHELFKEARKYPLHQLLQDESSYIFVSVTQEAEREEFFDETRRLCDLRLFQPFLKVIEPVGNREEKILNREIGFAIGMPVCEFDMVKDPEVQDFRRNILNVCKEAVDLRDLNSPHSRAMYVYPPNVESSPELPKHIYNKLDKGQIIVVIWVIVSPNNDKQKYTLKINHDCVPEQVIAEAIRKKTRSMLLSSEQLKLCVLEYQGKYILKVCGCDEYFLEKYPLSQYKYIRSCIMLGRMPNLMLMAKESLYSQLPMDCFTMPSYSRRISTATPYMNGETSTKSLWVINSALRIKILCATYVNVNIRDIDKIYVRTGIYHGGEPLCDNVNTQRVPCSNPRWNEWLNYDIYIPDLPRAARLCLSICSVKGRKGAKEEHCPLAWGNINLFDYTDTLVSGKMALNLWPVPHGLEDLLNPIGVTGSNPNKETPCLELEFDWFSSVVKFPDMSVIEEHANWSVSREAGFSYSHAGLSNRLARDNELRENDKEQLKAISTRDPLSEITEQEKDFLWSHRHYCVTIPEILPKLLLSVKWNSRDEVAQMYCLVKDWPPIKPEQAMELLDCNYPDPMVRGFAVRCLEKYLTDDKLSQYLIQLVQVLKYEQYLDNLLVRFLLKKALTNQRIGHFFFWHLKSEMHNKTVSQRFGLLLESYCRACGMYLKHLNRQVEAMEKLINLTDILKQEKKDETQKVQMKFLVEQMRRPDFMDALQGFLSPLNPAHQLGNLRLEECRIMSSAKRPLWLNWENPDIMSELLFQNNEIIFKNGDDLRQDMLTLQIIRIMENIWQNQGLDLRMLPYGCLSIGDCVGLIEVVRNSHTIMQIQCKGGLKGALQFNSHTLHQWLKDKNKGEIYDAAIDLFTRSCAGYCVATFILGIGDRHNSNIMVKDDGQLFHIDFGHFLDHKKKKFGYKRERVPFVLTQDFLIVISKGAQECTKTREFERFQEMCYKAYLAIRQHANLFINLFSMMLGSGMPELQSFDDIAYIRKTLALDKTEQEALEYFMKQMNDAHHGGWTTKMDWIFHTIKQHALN
Text: as §1

p110α H1047R = target: T3, p110α H1047R (human, UniProt P42336 1-1068)
T3 construct: Known hot-spot mutant, constitutively active p110α; also called p110alpha H1047R
T3 sequence (P42336 whole entry H1047R): as the sequence (P42336 whole entry) above, with H1047R counted along it
Text: as §1

Measured: binding result

T1 sequence (P42336 whole entry E545K): as the sequence (P42336 whole entry) above, with E545K counted along it

B1: N-terminally HA-tagged p85α R162stop (other)
chain: MSAEGYQYRALYDYKKEREEDIDLHLGDILTVNKGSLVALGFSDGQEARPEEIGWLNGYNETTGERGDFPGTYVEYIGRKKISPPTPKPRPPRPLPVAPGSSKTEADVEQQALTLPDLAEQFAPPDIAPPLLIKLVEAIEKKGLECSTLYRTQSSSNLAEL
notes: Stop codon at R162; also called p85 R162stop; 162R>O; not shown: N-terminal HA tag
no binding: p110α E545K | [1] | p110α H1047R
